Reference: US20240067748A1 (NONA BIOSCIENCES SUZHOU, published 2024)

T1: human Trop2 on cells (human, UniProt P09758 27-323)
T1 construct: whole, on cells; also called hTrop2; 293T-human Trop2 cells
T1 sequence (looked up): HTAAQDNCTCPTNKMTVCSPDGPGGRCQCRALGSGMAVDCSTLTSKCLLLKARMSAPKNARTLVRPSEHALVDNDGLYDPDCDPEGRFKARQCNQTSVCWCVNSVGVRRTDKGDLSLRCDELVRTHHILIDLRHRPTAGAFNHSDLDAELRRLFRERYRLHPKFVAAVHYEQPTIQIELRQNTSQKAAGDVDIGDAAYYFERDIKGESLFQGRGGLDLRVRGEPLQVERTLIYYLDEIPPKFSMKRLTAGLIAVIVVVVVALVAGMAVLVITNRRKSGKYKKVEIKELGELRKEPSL

T2: monkey Trop2 protein (Sino Biological, #90893-C08H) (monkey, UniProt A0A2K5UE71 27-274)
T2 construct: bought protein; also called monkey Trop2 protein antigen (His tag)
T2 sequence: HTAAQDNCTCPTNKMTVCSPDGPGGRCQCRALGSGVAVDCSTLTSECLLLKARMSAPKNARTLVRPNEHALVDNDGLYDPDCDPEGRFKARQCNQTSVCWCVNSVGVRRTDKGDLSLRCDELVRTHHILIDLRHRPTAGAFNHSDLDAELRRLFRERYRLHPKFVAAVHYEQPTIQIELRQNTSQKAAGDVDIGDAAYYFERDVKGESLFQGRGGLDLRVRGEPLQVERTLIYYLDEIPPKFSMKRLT

T3: human TROP2 protein (Sino Biological, #10428-H08H) (human, UniProt P09758 27-274)
T3 construct: bought protein; also called human Trop2 protein antigen (His tag); not shown: His tag
T3 sequence (looked up): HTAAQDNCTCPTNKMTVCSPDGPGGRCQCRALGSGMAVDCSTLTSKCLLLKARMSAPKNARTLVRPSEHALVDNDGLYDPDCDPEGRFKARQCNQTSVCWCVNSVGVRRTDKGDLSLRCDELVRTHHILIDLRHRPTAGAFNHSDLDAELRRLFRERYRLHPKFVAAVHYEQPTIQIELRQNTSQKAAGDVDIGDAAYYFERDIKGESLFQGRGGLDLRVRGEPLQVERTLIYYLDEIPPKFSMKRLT


Key:
human Trop2 on cells = target: T1, human Trop2 on cells; experiment: flow cytometry on 293T-human Trop2 cells
Protocol: The cell density was determined, and the cells were resuspended to 1×10⁶ cells/mL in PBS. 100 μL of cell suspension was taken from each well and added to a 96 well V-bottom plate. The 96-well V-bottom plate was centrifuged at 1000 rpm for 5 min and washed once with PBS+0.5% BSA (VWR, #0332-100G). […] After 1 h, the cells were washed twice with PBS+0.5% BSA. The cells were incubated with 100 μL of Alexa Fluor 488 goat anti-human IgG (Life technologies, 1:1000, #A-11013) at 4° C. for 1 h in the dark, and washed twice with PBS+0.5% BSA. The cells were resuspended in 200 μL of PBS+0.5% BSA. The fluorescence intensity of the cells was analyzed using a FACS verse flow cytometer. All procedures were performed on ice.

[1] = target: T2, monkey Trop2 protein (Sino Biological, …); experiment: BLI, Octet RED96; ratio against KD for human Trop2 protein
Protocol: (§1) Specifically, a human TROP2 protein (Sino Biological, #10428-H08H) or a monkey Trop2 protein (Sino Biological, #90893-C08H) was diluted to 200 nM with a PBS buffer (pH 7.4) containing 0.1% (w/w) BSA and 0.02% (v/v) tween 20, and incubated with the AHC sensor respectively. 40 nM Trop2 antibody was incubated at 30° C. for 3 min with the AHC sensor loaded with the human Trop2 protein or monkey Trop2 protein respectively. The reaction mixture was incubated at 30° C. for another 5 min in a PBS buffer (pH 7.4) containing 0.1% (v/w) BSA and 0.02% (v/v) Tween 20. The association and dissociation signals between the Trop2 antibody and the human Trop2 protein or monkey Trop2 protein were recorded by Octet Red 96 in real time. The affinity and the association and dissociation constants were determined by Octet using software.

[2] = target: T3, human TROP2 protein (Sino Biological, …); experiment: BLI, Octet RED96, AHC sensor
Protocol: as §1

[3] = target: T2, monkey Trop2 protein (Sino Biological, …); experiment: BLI, Octet RED96, AHC sensor
Protocol: as §1

Row | EC50 (human Trop2 on cells) | Maximum (MFI) (human Trop2 on cells) | Top % (human Trop2 on cells) | KD (monkey)/KD (human) [1] | Kd [2] | Response [2] | koff [2] | kon [2] | Kd [3] | Response [3] | koff [3] | kon [3] | fold lower KD than the reference antibody Tab (hRS7) [2] | Binder
1 | 2.54 nM | 7320 MFI | 113% | 2.32 | 1.84 nM | 0.406 | 0.000144 s⁻¹ | 78100 M⁻¹ s⁻¹ | 4.26 nM | 0.356 | 0.000219 s⁻¹ | 51500 M⁻¹ s⁻¹ | – | PR001155 (antibody, human IgG1, kappa, V domains shown, fully human IgG1/kappa; also called antibody No. (18)) VH: QVQLVQSGGGVVQPGRSLRLSCAASGFTFSHYGMHWVRQAPGKGLEWVAVIWYDGIKKYYVESVKGRFTISRDNSKNTLYLQMNRLRAEDTAVYYCARDGGFGELNYYGLDVWGQGTTVTVSS VL: DIQLTQSPSFLSASVGDRVTITCRASQGISSYLGWYQQKPGKAPKLLIYVASTLQSGVPSRFSGSGSGTEFTLTISSLQPEDFATYYCQQLNSYPYTFGQGTKLEIKR
2 | 0.496 nM | 5990 MFI | 92.4% | 2.48 | 0.79 nM | 0.396 | 8.34e-05 s⁻¹ | 106000 M⁻¹ s⁻¹ | 1.96 nM | 0.372 | 0.000134 s⁻¹ | 68400 M⁻¹ s⁻¹ | – | PR001163 (antibody, human IgG1, kappa, V domains shown, fully human IgG1/kappa; also called antibody No. (24)) VH: QVQLVESGGDVVQPGRSLRLSCEASGFTFSHYGMHWVRQAPGKGLEWVAVVWYDGIKKYYVESVKGRFTISRDNSKNTLYLQMNRLRAEDTAVYYCARDGGFGELNYYGLDVWGQGTTVTVSS VL: DIQLTQSPSFLSASVGDRVTITCRASQGISSYLGWYQQKPGKAPKLLIYVASTLQSGVPSRFSGSGSGTEFTLTISSLQPEDFATYYCQQLNSYPYTFGQGTKLEIKR
3 | 1.26 nM | 6950 MFI | 107% | 4.56 | 0.155 nM | 0.433 | 2.05e-05 s⁻¹ | 132000 M⁻¹ s⁻¹ | 0.708 nM | 0.406 | 6.23e-05 s⁻¹ | 87900 M⁻¹ s⁻¹ | – | PR001158 (antibody, human IgG1, kappa, V domains shown, fully human IgG1/kappa; also called antibody No. (20)) VH: QVQLVESGGGVVQPGRSLRLSCVASGFTFSHYGMHWVRQAPGKGLEWVAVIWYDGIKKYYVESVKGRFTISRDNSKNTLNLQMNRLRAEDTAVYYCARDGGFGESNYYGLDVWGQGTTVTVSS VL: DIQLTQSPSFLSASVGDRVTITCRASQGISSYLGWYQQKPGKAPKLLIYIASTLQSGVPSRFSGSGSGTEFTLTISSLQPEDFATYYCQQLNSYPYTFGQGTKLEIKR
4 | 1.22 nM | 6710 MFI | 104% | 2.22 | 0.819 nM | 0.39 | 9.48e-05 s⁻¹ | 116000 M⁻¹ s⁻¹ | 1.82 nM | 0.36 | 0.000135 s⁻¹ | 74300 M⁻¹ s⁻¹ | – | PR001160 (antibody, human IgG1, kappa, V domains shown, fully human IgG1/kappa; also called antibody No. (22)) VH: QVQLVESGGGVVQPGRSLRLSCEASGFTFSHYGMHWVRQAPGKGLEWVAVIWYDGIMKNYIESVKGRFTISRDNSKNTLYLQMNRLRAEDTAVYYCARDGGFGELNYYGLDVWGQGTTVTVSS VL: DIQLTQSPSFLSASVGDRVTITCRASQGISSYLGWYQQKPGKAPKLLIYVASTLQSGVPSRFSGSGSGTEFTLTISSLQPEDFATYYCQQLNSYPYTFGQGTKLEIKR
5 | 1.67 nM | 7270 MFI | 112% | 5.85 | 0.0916 nM | 0.354 | 1.67e-05 s⁻¹ | 183000 M⁻¹ s⁻¹ | 0.536 nM | 0.349 | 6.15e-05 s⁻¹ | 115000 M⁻¹ s⁻¹ | – | PR001156 (antibody, human IgG1, kappa, V domains shown, fully human IgG1/kappa; also called antibody No. (19)) VH: QVQLVESGGGVVQPGRSLRLSCEGSGFTFSHYGMHWVRQAPGKGLEWVAVIWYDGIKKNYVDSLKGRFTISRDNSKNTLYLQMNSLRAEDTAVYYCARDGGFGELNYYGMDVWGQGTTVTVSS VL: DIQLTQSPSFLSASVGDRVTITCRASQGISSYLGWYQQKPGKAPKLLIYIASTLQSGVPSRFSGSGSGTEFTLTISSLQPEDFATYYCQQLNSYPYTFGQGTKLEIKR
6 | 0.48 nM | 7030 MFI | 108% | 1.3 | 14.7 nM | 0.29 | 0.00135 s⁻¹ | 91900 M⁻¹ s⁻¹ | 19.1 nM | 0.277 | 0.00134 s⁻¹ | 70100 M⁻¹ s⁻¹ | – | PR001145 (antibody, human IgG1, kappa, V domains shown, fully human IgG1/kappa; also called antibody No. (11)) VH: QVQLVESGGGVVQPGRSLRLSCAASGFTFSSFGMQWVRQGPGKGLEWVAIMWFDGSNKYYVDSVKGRFTISRDNSKNTLYLQMNSLRAEDTAVYYCARLDFSGWPLIDYWGQGTLVTVSS VL: not shown
7 | 0.653 nM | 6040 MFI | 93.2% | 1.72 | 5.42 nM | 0.354 | 0.000451 s⁻¹ | 83100 M⁻¹ s⁻¹ | 9.33 nM | 0.335 | 0.000512 s⁻¹ | 54900 M⁻¹ s⁻¹ | – | PR001134 (antibody, human IgG1, kappa, V domains shown, fully human IgG1/kappa; also called antibody No. (6)) VH: QVQLVESGGGVVQPGRSLRVSCIASGFFFSSYGMHWVRQAPGKGLEWVAVIWYDGSNEDYVDSVKGRFTISRDNSKNTLYLQMNSLRGEDTAMYYCARGGYNSGWWAFDIWGQGTMVTVSS VL: DIQMTQSPSSLSASVGDRVTITCRASQGISHFLAWYQQKPGKVPKLLIYAASTLQSGVPSRFSGSGSGTDFTLTISSLQPEDVATYYCQKFNSAPLTFGGGTKVEIKR
8 | 0.795 nM | 6300 MFI | 97.2% | 1.78 | 6.94 nM | 0.335 | 0.000556 s⁻¹ | 80100 M⁻¹ s⁻¹ | 12.4 nM | 0.308 | 0.000645 s⁻¹ | 52100 M⁻¹ s⁻¹ | – | PR001143 (antibody, human IgG1, kappa, V domains shown, fully human IgG1/kappa; also called antibody No. (10)) VH: QVQLVESGGGVVQPGRSLRVSCAASGFIFSTYGMHWVRQAPGKGLEWVAVIWYDGSNEDYVDSVKGRFTISRDNSKNTLYLQMNSLRGEDTAVYYCARGGYNSGWWAFDVWGQGTLVTVSS VL: DIQMTQSPSSLSASVGDRVTITCRASQGISHFLAWYQQKPGKVPKLLIYAASTLQSGVPSRFSGSGSGTDFTLTISSLQPEDVATYYCQKFNSAPLTFGGGTKVEIKR
9 | 2.47 nM | 6940 MFI | 107% | 5.61 | 0.0323 nM | 0.381 | 2.53e-06 s⁻¹ | 78600 M⁻¹ s⁻¹ | 0.181 nM | 0.337 | 1.07e-05 s⁻¹ | 59300 M⁻¹ s⁻¹ | ~10 fold | PR001153 (antibody, human IgG1, kappa, V domains shown, fully human IgG1/kappa; also called antibody No. (16)) VH: QVQLQESGPGLVKPSGTLSLTCAVSGGSISSSNWWSWVRQPPGKGLEWIGEIYHDGSTDYNPSLKSRVIISVDKSKNQFSLKVRSVTAADTAVYYCARDNWGFDYWGQGTLVTVSS VL: EIVLTQFPGTLSLSPGERATLSCRSSQSVSSSYLAWYQQKPGQAPRLLISGASSRATGIPDRFSGSGSGTDFTLTISRLEPEDFAVYYCQQYGSSPRTFGQGTKVEIKR
10 | 1.31 nM | 7420 MFI | 115% | 3.86 | 0.498 nM | 0.349 | 4.23e-05 s⁻¹ | 85000 M⁻¹ s⁻¹ | 1.92 nM | 0.341 | 0.000117 s⁻¹ | 60900 M⁻¹ s⁻¹ | – | PR001147 (antibody, human IgG1, kappa, V domains shown, fully human IgG1/kappa; also called antibody No. (12)) VH: QVNLVESGGGVVQPGRSLKLSCAASGFTFSSYGMHWVRQAPGKGLEWVAFIWSDGTNRYYPESVKGRFTISRDDSRNTVSLQMNSLRPEDTAVYYCARDGWGTYGEYFQHWGQGTLVTVSS VL: not shown
